Measurements as given in paper PMC4404995.

Substrate: CC(=O)c1ccc(O[C@@H]2O[C@H](CO)[C@@H](O)[C@H](O)[C@H]2O)cc1
Assay: LC-MS assay of aglycon release
Type: biochemical, Picea glauca
Details: 0.01–2.0 mM picein, 20 mM MES-KOH, pH 6, 37°C, 1 h

B1: PgβGLU-1 (Picea glauca) (protein)
chain: TSPDLGRSSFPKGFKFGAGSSAYQDEGAALEGGKGPSIWDTFSHIQGKIEDGKNGDVAVDQYHRYKEDVRHLKYMGMDLYRFSISWSRIFPQGSPRHGGVNEEGITYYNNLINELLKNGMEPFVTLYHWDMPQALEDEYGGFRSQRVVEDIGTFAEECFRAFGDRVKYWTTINEPLTFTLYGYDLGIHAPGRCSPGFGNCTAGNSATEPYIVTHNMLLAHSAAVKTYRTKYQGKQKGSIGISLVVNWMVPYSNSLLDQEATQRAIDFRIGWFLDPLTSGKYPDSMRSLVGARLPRFSSEEAKDLKGSFDFLGYNYYQTYFTVNNPTPQNSLNTDYVLDAQANISQQVNGVYVGSSEGVSSFRSYPAGLREVINYTKHRYSNPPIYITETGYGDFDNGTTPLEEALQDSGRVEYYSKHLSSLLEAIREGADVRGYVVWSFLDGFEWASGYDYRFGLYYVDYNDNLKRYPRESANWFRNVLKS
Protein B1 has a Km of 1280 ± 530 µM.
